# Measured values: IntAct's records for PubMed 18325333
# Molecular target: cdk5_mouse Cdk5 (UniProt P49615)
# Sequence of Cyclin-dependent kinase 5 activator 1 (Mus musculus), P61809 L289A (P61809 whole entry L289A): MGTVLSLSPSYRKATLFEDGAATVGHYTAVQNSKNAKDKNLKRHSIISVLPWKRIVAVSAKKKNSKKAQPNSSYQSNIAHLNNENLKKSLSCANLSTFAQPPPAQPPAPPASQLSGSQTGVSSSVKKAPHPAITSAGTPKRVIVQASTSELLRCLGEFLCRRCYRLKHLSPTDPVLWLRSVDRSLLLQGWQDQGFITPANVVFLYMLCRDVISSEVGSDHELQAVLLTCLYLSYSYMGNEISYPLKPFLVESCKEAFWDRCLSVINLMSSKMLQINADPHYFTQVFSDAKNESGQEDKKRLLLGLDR
# Sequence of Cyclin-dependent kinase 5 activator 1 (Mus musculus), P61809 D288A (P61809 whole entry D288A): as the sequence (P61809 whole entry L289A) above, with D288A, A289L counted along it
row,Substance,effect of a mutation on the interaction
1,"Cyclin-dependent kinase 5 activator 1 (Mus musculus), P61809 D288A",disrupting interaction
2,"Cyclin-dependent kinase 5 activator 1 (Mus musculus), P61809 L289A",disrupting interaction
